Assay results reported in patent US6518063 (University of Texas, dated 1998).

Columns and labels:
[1] = target: T1, histidine-tagged recombinant Osf2/Cbfa1 polypeptide (His-Osf2/Cbfa1) (mouse, UniProt Q08775 80-607); experiment: EMSA with labeled OSE2 oligonucleotide, with or without Cbfβ
T1 construct: Bacterially expressed, enriched on Ni resin; also called His-tagged Osf2/Cbfa1 polypeptide
Method: (§1) DNA-binding assays were performed with 5 fmol of ^32P-labeled double-stranded OSE2 oligonucleotides, in a buffer containing 20 mM Tris-HCl, pH 8.0, 10 mM NaCl, 3 mM EGTA, 0.05% NP-40, 5 mM DTT, and 2 μg of poly (dI.dC).poly (dI.dC), with equivalent amounts of wild type or mutant proteins. […] Typically, 100 ng of fusion protein bound to glutathione-agarose beads was used for each assay, while the amount of labeled protein in the assay was determined using fluorography.

[2] = target: T2, ΔN19.1.1 deletion mutant of Osf2 (His-tagged) (mouse, UniProt Q08775 99-607); experiment: as above
T2 construct: counted with Met69 of the cDNA as residue 1
T2 sequence (Q08775 other isoform, or with tags, fused parts or gaps mutant): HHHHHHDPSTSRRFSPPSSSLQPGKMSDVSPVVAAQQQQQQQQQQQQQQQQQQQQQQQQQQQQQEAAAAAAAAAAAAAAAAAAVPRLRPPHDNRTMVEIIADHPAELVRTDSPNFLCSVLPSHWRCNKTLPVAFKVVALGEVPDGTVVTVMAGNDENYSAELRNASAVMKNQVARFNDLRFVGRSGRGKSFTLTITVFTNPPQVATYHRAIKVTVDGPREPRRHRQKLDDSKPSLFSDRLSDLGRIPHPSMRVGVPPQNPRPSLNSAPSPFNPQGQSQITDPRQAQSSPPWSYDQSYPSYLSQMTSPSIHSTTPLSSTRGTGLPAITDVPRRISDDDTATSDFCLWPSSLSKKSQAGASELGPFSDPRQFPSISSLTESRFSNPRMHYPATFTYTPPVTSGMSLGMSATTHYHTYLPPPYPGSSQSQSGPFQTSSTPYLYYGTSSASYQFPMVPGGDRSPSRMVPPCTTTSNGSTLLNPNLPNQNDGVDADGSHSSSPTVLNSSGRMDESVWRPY
Method: as §1

T1 sequence (Q08775 other isoform, or with tags, fused parts or gaps): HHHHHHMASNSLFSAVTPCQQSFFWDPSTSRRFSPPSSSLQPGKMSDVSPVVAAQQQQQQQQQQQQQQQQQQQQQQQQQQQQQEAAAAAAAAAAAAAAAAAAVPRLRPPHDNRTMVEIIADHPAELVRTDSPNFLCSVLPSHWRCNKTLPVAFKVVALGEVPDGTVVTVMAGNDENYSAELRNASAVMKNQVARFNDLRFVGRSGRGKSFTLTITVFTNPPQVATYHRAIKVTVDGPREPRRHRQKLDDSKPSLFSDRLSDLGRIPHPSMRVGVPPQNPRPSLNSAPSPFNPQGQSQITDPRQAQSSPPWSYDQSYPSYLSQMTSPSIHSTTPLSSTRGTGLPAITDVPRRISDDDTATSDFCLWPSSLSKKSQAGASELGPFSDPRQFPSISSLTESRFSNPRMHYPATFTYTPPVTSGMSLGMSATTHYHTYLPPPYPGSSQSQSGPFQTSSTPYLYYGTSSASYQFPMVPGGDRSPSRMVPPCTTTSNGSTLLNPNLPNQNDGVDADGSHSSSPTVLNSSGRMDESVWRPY

binding result [1]: no binding | binding result [2]: no binding
B1: histidine-tagged Cbfβ (other)
chain: HHHHHHMPRVVPDQRSKFENEEFFRKLSRECEIKYTGFRDRPHEERQTRFQNACRDGRSEIAFVATGTNLSLQFFPASWQGEQRQTPSREYVDLEREAGKVYLKAPMILNGVCVIWKGWIDLHRLDGMGCLEFDEERAQQEDALAQQAFEEARRRTREFEDRDRSHREEMEARRQQDPSPGSNLGGGDDLKLR
notes: Recombinant Cbfβ added in EMSA; also called Cbf]3
